# Assay results reported in IntAct's records for PubMed 12565857.
# B1: Chromobox protein homolog 5 (Mus musculus), Q61686 (parent)
# chain: MGKKTKRTADSSSSEDEEEYVVEKVLDRRMVKGQVEYLLKWKGFSEEHNTWEPEKNLDCPELISEFMKKYKKMKEGENNKPREKSEGNKRKSSFSNSADDIKSKKKREQSNDIARGFERGLEPEKIIGATDSCGDLMFLMKWKDTDEADLVLAKEANVKCPQIVIAFYEERLTWHAYPEDAENKEKESAKS
# partner: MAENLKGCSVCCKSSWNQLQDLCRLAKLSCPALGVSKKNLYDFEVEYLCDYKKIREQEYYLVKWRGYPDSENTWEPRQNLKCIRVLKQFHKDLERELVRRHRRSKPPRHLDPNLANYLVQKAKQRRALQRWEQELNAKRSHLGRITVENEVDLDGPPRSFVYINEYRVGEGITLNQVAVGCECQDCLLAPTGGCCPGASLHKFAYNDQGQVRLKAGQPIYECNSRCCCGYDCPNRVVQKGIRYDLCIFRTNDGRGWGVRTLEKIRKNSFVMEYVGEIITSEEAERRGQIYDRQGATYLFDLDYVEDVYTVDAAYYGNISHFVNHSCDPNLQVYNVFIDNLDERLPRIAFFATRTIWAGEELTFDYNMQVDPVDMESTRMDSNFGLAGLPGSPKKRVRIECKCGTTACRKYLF
# Variants of: B1
# Details: with suv91_mouse Suv39h1, O54864
row,Variant,effect of a mutation on the interaction
1,I165E;Y168E,disrupting interaction
